Results: paper doi:10.1101/2024.03.13.584854 (bioRxiv, 2024)

T1: Saccharomyces cerevisiae Snf7 mutant (R52E) (Saccharomyces cerevisiae, UniProt P39929 1-240, R52E)
T1 sequence (looked up): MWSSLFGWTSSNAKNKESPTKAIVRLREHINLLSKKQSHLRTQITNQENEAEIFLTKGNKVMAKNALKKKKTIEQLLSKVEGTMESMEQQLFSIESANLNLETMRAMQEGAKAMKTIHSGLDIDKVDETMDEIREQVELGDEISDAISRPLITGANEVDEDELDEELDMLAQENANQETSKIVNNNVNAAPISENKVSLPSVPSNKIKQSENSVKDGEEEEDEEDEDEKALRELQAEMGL


Biological target: T1, Saccharomyces cerevisiae Snf7 mutant …
Test: co-sedimentation

binding result | Binder
binds | Saccharomyces cerevisiae Vps2 (natural protein, UniProt P36108 1-232, looked up) MSLFEWVFGKNVTPQERLKKNQRALERTQRELEREKRKLELQDKKLVSEIKKSAKNGQVAAAKVQAKDLVRTRNYIQKFDNMKAQLQAISLRIQAVRSSDQMTRSMSEATGLLAGMNRTMNLPQLQRISMEFEKQSDLMGQRQEFMDEAIDNVMGDEVDEDEEADEIVNKVLDEIGVDLNSQLQSTPQNLVSNAPIAETAMGIPEPIGAGSEFHGNPDDDLQARLNTLKKQT
binds | Saccharomyces cerevisiae Vps24 (natural protein, UniProt P36095 1-224, looked up) MDYIKKAIWGPDPKEQQRRIRSVLRKNGRNIEKSLRELTVLQNKTQQLIKKSAKKNDVRTVRLYAKELYQINKQYDRMYTSRAQLDSVRMKIDEAIRMNTLSNQMADSAGLMREVNSLVRLPQLRNTMIELEKELMKSGIISEMVDDTMESVGDVGEEMDEAVDEEVNKIVEQYTNEKFKNVDQVPTVELAANEEEQEIPDEKVDEEADRMVNEMRERLRALQN
